Results from patent US20250155441A1.
Substitutions are numbered along the chain they refer to.

B1: mAb<AFP-L3>rRb-3C5-IgG (antibody, V domains shown)
VH: QSVEESGGRLVAPGTPLTLTCTVSGIDLSTYGMGWVRQAPGKGLEYIGIIDSGSTYYANWAKGRFTISKTSTTVDLKMTSLTTEDTATYFCARDRDPSSSGYYFKMWGPGTLVTVSL
VL: ALVMTQTPSSVSAAVGGTVTINCQASQSIGSYLAWYQQKPGQPPRLLIYGASNLESGVPSRFKGSGSGTEFTLTISDLECDDAATYYCQTAFYIFSSDNAFGGGTEVVVK
B2: mAb<AFP-L3>rRb-19B12-IgG (antibody, V domains shown)
VH: QSVEESGGRLVAPGTPLTLTCTVSGIDLSTYGMGWVRQAPGKGLEWIGIIGDNGSTYYANWAKGRFTISKTSTTVDLKMTSLTTEDTATYFCARDRDPSSSGYYFKMWGPGTLVTVSL
VL: B1 VL with G30S, R45K, Y49F

Columns and labels:
[1] = molecular target: α-fetoprotein (AFP-L1), the non-fucosylated variant of AFP that should not react with Lens culinaris agglutinin A (human) (UniProt P02771); assay: Elecsys ECL immunoassay, biotinylated protein 7 nM without pretreatment, antibody 1 µg/mL, ruthenylated anti-rabbit Fc, streptavidin beads (PBS blank 570)
[2] = molecular target: α-fetoprotein (AFP-L1), the non-fucosylated variant of AFP that should not react with Lens culinaris agglutinin A (human) (UniProt P02771); assay: Elecsys ECL immunoassay, biotinylated protein 7 nM without pretreatment, antibody 1 µg/mL, ruthenylated anti-rabbit Fc, streptavidin beads (PBS blank 580)

Sequence of α-fetoprotein (AFP-L1), the non-fucosylated variant of AFP that should not react with Lens culinaris agglutinin A (human) (P02771 19-609 limits assumed, change not shown): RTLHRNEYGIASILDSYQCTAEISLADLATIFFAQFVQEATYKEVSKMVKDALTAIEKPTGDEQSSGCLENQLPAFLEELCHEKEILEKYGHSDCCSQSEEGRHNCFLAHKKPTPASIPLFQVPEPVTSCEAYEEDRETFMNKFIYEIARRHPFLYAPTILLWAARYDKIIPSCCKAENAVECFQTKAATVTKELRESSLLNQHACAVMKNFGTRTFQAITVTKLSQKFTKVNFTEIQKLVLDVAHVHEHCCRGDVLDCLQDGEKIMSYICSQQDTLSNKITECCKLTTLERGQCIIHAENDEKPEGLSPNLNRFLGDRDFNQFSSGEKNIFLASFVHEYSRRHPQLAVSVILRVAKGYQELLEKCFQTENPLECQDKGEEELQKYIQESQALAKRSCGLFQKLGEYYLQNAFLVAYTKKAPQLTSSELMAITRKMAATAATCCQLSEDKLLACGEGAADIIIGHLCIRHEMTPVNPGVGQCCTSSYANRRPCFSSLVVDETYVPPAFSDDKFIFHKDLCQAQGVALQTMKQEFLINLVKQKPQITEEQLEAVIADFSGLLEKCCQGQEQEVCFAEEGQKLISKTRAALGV

Binder | Counts [1] [counts] | Counts [2] [counts]
B1 | 724 | 
B2 |  | 771
